From paper PMC3706463, “The Asymmetric Binding of PGC-1α to the ERRα and ERRγ Nuclear Receptor Homodimers Involves a Similar Recognition Mechanism” (PLoS ONE, 2013) come the findings set out here.

T1: PGC-1α NTD (1–285) (human, UniProt Q9UBK2 1-285)
T1 construct: PGC-1α, human, residues 1-285, holds motifs L2 and L3; source: cloned in pET24b
T1 sequence (looked up): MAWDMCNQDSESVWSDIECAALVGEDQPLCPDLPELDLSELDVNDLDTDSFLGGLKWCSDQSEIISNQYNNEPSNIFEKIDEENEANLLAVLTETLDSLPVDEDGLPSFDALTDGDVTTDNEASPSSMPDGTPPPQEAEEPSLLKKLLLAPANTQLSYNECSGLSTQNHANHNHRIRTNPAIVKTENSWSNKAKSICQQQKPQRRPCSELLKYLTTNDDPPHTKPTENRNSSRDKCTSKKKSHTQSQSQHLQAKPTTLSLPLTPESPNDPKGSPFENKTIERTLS

T2: ERRγ LBD (ERRγ 229-458) homodimer (UniProt P62508 229-458)
T2 construct: Cloned in pET15b; The His6-tag of ERR was cleaved with thrombin for SAXS; nothing is said for ITC and native PAGE; also called ERR LBD; source: E. coli BL21 (DE3), purified (HisTrap, SEC)
T2 sequence (looked up): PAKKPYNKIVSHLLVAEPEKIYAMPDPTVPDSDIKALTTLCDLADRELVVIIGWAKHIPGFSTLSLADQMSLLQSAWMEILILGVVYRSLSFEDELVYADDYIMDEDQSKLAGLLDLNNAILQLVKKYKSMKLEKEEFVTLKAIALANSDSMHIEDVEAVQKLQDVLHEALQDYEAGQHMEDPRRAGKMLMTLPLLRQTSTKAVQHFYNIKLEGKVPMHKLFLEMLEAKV

T3: ERRα LBD (ERRα-189-423) homodimer (UniProt P11474 189-423)
T3 construct: The His6-tag of ERR was cleaved with thrombin for SAXS and left on ERRα for ESI-MS; nothing is said for ITC and native PAGE; also called ERR LBD; source: E. coli BL21 (DE3), purified (HisTrap, SEC)
T3 sequence (looked up): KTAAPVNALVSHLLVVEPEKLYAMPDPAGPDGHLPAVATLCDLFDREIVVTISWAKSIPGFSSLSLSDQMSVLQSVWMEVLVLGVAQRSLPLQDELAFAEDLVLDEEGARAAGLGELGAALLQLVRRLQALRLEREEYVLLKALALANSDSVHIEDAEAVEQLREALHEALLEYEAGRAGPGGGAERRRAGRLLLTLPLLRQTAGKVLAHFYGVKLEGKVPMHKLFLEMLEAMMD

B1: ERRγ LBD (ERRγ 229–458) homodimer (domain or fragment, UniProt P62508 229-458, looked up)
chain: T2 sequence (looked up)
notes: also called ERR LBD; source: cloned in pET15b
B2: PGC-1α RID1 (122–235), wild type (domain or fragment, human, UniProt Q9UBK2 122-235, looked up)
chain: EASPSSMPDGTPPPQEAEEPSLLKKLLLAPANTQLSYNECSGLSTQNHANHNHRIRTNPAIVKTENSWSNKAKSICQQQKPQRRPCSELLKYLTTNDDPPHTKPTENRNSSRDK
modifications: 15N-labelled in the NMR experiments
notes: His6 is named only for RID2; source: cloned in pET24b
B3: PGC-1α RID1 (122-235), wild type (domain or fragment, human, UniProt Q9UBK2 122-235, looked up)
chain: B2 chain
notes: for ITC, native PAGE and SEC-MALS no cleavage of the PGC-1α tag is told; 15N-labelled for NMR; source: E. coli BL21 (DE3), purified (HisTrap, SEC); not shown: His6, N-terminal, kept
B4: PGC-1α RID2 (122–285) (domain or fragment, human, UniProt Q9UBK2 122-285, looked up)
chain: EASPSSMPDGTPPPQEAEEPSLLKKLLLAPANTQLSYNECSGLSTQNHANHNHRIRTNPAIVKTENSWSNKAKSICQQQKPQRRPCSELLKYLTTNDDPPHTKPTENRNSSRDKCTSKKKSHTQSQSQHLQAKPTTLSLPLTPESPNDPKGSPFENKTIERTLS
modifications: 15N-labelled in the NMR experiments
notes: PGC-1α, human, residues 122-285, holds motifs L2 and L3; also called His6-tagged PGC-1α RID2; source: cloned in pET24b; not shown: His6, N-terminal, kept
B5: short peptide encompassing motif L2 of PGC-1α (peptide)
chain: EAEEPSLLKKLLLAPANTQ
modifications: Peptide limits are not printed in the supplied text; 137-155 is the commonly used PGC-1α L2 peptide around motif 144-148. Termini unknown.
B6: ERRα LBD (ERRα-189-423) homodimer (domain or fragment, UniProt P11474 189-423, looked up)
chain: T3 sequence (looked up)
notes: also called ERR LBD; source: cloned in pET24b
B7: ERRα LBD (189-423) homodimer with uncleaved His6 tag (domain or fragment, UniProt P11474 189-423, looked up)
chain: T3 sequence (looked up)
notes: source: cloned in pET24b
B8: short peptide encompassing motif L3 of PGC-1α (peptide)
chain: QQQKPQRRPCSELLKYLTTNDD
modifications: Peptide limits are not printed in the supplied text; taken from the PGC-1α L3 peptide crystallised with ERRα (PDB 3D24, cited in the supplement). Termini unknown.

Data set [1] deals with ERRα LBD (ERRα-189-423) homodimer (UniProt P11474). As to the kind of experiment: ITC; PGC-1α RID wild type or LxxLL mutant (340-580 µM) injected into 40-70 µM ERR in the cell; 20°C; 20 mM Hepes pH 7.5, 120 mM NaCl, 0.2 % glycerol; one set of sites model. In general terms: In ITC the heat of successive injections is recorded.
The target in data set [2] is ERRγ LBD (ERRγ 229-458) homodimer (UniProt P62508). The data set is described as above.
For data set [3], the target named is T1, PGC-1α NTD (1–285). Briefly: SAXS; synchrotron solution scattering (X33 DESY, SWING SOLEIL), direct injection or SEC-coupled; free proteins and complexes. As to conditions: both partners purified.
Data set [4] deals with the molecule itself. As to the kind of experiment: native MS; ESI-TOF under non-denaturing conditions, 200 mM ammonium acetate, pH 7.4.
Data set [5] concerns the target B6. Briefly: ITC; MicroCal iTC200, 20°C, pH 7.5, one set of sites model; apparent. The note with it: both partners purified.
Data set [6] deals with B1. The description is as above. The note with it: both partners purified.
The target of data set [7] is T2, ERRγ LBD (ERRγ 229-458) homodimer. As to the kind of experiment: ITC; PGC-1α RID wild type or LxxLL mutant (340-580 µM) injected into 40-70 µM ERR in the cell; 20°C; 20 mM Hepes pH 7.5, 120 mM NaCl, 0.2 % glycerol; one set of sites model. The note with it: both partners purified.
The target of data set [8] is T3, ERRα LBD (ERRα-189-423) homodimer. Described as above. As to conditions: both partners purified.
The target of data set [9] is B7. As to the kind of experiment: native MS; ESI-TOF under non-denaturing conditions, 200 mM ammonium acetate, pH 7.4. As to conditions: both partners purified.
Data set [10] concerns the target B1. Described as above. The note with it: both partners purified.
The target in data set [11] is B6. Briefly: not stated; binding of short PGC-1α peptides to ERR LBDs; told only in the discussion. The note with it: both partners purified.
Data set [12] deals with B1. The data set is described as above. As to conditions: both partners purified.
Data set [13] concerns the molecule itself. As to the kind of experiment: SAXS; synchrotron solution scattering (X33 DESY, SWING SOLEIL), direct injection or SEC-coupled; free proteins and complexes.

Values joined by “and” are separate entries in the source; they are usually repeats but may differ in a detail not shown here. Identical values can stand only once.

For the molecule “PGC-1α RID1 L2m (LKKLL to LKKAA) (from UniProt Q9UBK2 122-235) (domain or fragment)”, the stoichiometry N (in general, the number of molecules, sites or subunits per partner or assembly) in data set [1] came out at 0.846; in [2] it was 0.605.

Consider “PGC-1α RID1 L3m (LLKYL to AAKYL) (from UniProt Q9UBK2 122-235) (domain or fragment)”, for which the stoichiometry N was 0.483 in [1] and 0.793 in data set [2].

Regarding B1, in [3], the binding result is on record as “binds”. The “stoichiometry N” value in data set [4] came to 2.

On to B2, for which the Kd in [5] was determined as 0.071 ± 0.006 µM; in [6], 0.053 ± 0.003 µM.

As for B3, the “stoichiometry N” value in [7] was 0.932 ± 0.001; in data set [8], 0.94 ± 0.001.

On to B4, for which the “stoichiometry N” value in data set [9] and in data set [10] was 1 PGC-1α RID2 molecule per ERR homodimer in each case.

B5: the Kd in data set [11] is 6.1 µM; in data set [12], 1.2 µM.

As for B6, the “stoichiometry N” value in data set [13] is 2 and 6.

As for B7, the “stoichiometry N” value in data set [4] worked out at 2.

For the molecule B8, the results for the Kd in [11] and in data set [12] were 4.1 µM and 1.3 µM, respectively.
